Data set [1] deals with HeLa Kyoto. Nature of the data set: solubility in G1/S (NP-40 vs SDS abundance) (log2 ratio); higher = more soluble. The conditions noted are these: cell cycle stage: G1/S.
The subject of data set [2] is HeLa Kyoto. The data set can be described thus: melting temperature (median over replicates), in situ; higher = more thermally stable.
Data set [3] has as its system HeLa Kyoto. Nature of the data set: solubility change mitosis vs G1/S (difference of NP-40 vs SDS log2 ratios) (log2 ratio difference); higher = more soluble in mitosis.
Data set [4] has as its system HeLa Kyoto. Nature of the data set: thermal stability score vs G1/S (z-score of summed log2 fold changes over temperatures); higher = more thermally stable than in G1/S.
The mark [5] stands for this setting: cell cycle stage: early G1 (4.5 h after nocodazole release).
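For melting temperature (median over replicates), in situ in this document: HeLa Kyoto cells synchronized by double thymidine or nocodazole block, proteins quantified by TMT10plex mass spectrometry, three independent biological replicates.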
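For solubility change mitosis vs G1/S (difference of NP-40 vs SDS log2 ratios) in this document: synchronized HeLa Kyoto cells (double thymidine block for G1/S, nocodazole release for mitosis), protein amounts in NP-40 versus SDS lysates quantified by mass spectrometry, three biological replicates.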
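For solubility in G1/S (NP-40 vs SDS abundance) in this document: HeLa Kyoto cells arrested at G1/S by double thymidine block, proteins quantified by TMT10plex mass spectrometry in mild NP-40 versus SDS extracts, three biological replicates.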
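For thermal stability score vs G1/S (z-score of summed log2 fold changes over temperatures) in this document: synchronized HeLa Kyoto cells, proteins quantified by TMT10plex mass spectrometry, three biological replicates, mitosis taken 0.5 h after nocodazole release, G1/S directly after double thymidine block.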

Chain of CDK12 (chain, as listed by the source): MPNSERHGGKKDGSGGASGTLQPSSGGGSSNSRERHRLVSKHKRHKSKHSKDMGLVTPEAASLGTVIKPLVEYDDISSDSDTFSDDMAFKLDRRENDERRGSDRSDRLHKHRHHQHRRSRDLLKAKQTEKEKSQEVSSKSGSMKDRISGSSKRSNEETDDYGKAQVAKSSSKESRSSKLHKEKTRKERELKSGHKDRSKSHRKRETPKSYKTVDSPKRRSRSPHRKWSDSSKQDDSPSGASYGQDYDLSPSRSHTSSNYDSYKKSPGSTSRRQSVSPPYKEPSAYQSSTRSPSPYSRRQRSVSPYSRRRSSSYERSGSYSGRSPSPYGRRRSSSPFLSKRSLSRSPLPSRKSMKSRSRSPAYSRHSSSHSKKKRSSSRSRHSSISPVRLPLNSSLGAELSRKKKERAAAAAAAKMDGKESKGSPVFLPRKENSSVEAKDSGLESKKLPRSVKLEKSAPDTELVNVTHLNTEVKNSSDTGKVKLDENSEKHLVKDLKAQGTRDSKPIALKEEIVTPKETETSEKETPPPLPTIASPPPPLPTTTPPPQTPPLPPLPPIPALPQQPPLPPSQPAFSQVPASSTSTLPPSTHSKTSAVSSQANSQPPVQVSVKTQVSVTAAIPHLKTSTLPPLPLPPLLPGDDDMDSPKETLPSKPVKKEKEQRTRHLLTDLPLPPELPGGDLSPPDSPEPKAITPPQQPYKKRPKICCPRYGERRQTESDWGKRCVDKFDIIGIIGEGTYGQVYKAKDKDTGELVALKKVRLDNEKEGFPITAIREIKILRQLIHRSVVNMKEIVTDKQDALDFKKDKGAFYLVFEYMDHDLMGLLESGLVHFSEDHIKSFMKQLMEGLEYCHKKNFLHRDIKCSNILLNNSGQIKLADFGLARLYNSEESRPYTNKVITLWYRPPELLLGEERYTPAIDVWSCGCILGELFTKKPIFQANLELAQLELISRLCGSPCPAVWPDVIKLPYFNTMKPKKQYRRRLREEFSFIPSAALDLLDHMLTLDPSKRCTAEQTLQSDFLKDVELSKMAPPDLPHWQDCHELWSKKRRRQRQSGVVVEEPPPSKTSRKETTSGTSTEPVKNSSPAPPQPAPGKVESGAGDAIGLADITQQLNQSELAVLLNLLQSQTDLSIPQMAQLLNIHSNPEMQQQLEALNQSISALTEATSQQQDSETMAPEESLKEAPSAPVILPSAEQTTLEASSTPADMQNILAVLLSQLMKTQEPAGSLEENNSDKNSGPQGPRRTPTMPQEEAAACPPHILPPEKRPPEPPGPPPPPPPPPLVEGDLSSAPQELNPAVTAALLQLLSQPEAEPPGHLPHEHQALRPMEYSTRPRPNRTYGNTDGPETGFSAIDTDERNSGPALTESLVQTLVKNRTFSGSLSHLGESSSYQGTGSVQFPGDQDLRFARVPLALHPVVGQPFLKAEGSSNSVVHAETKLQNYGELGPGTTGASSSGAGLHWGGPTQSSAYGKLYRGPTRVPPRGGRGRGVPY

For the substance “MSAKAISEQTGKELLYKFICTTSAIQNRFKYARVTPDTDWARLLQDHPWLLSQNLVVKPDQLIKRRGKLGLVGVNLTLDGVKSWLKPRLGQEATVGKATGFLKNFLIEPFVPHSQAEEFYVCIYATREGDYVLFHHEGGVDVGDVDAKAQKLLVGVDEKLNPEDIKKHLLVHAPEDKKEILASFISGLFNFYEDLYFTYLEINPLVVTKDGVYVLDLAAKVDATADYICKVKWGDIEFPPPFGREAYPEEAYIADLDAKSGASLKLTLLNPKGRIWTMVAGGGASVVYSDTICDLGGVNELANYGEYSGAPSEQQTYDYAKTILSLMTREKHPDGKILIIGGSIANFTNVAATFKGIVRAIRDYQGPLKEHEVTIFVRRGGPNYQEGLRVMGEVGKTTGIPIHVFGTETHMTAIVGMALGHRPIPNQPPTAAHTANFLLNASGSTSTPAPSRTASFSESRADEVAPAKKAKPAMPQDSVPSPRSLQGKSTTLFSRHTKAIVWGMQTRAVQGMLDFDYVCSRDEPSVAAMVYPFTGDHKQKFYWGHKEILIPVFKNMADAMRKHPEVDVLINFASLRSAYDSTMETMNYAQIRTIAIIAEGIPEALTRKLIKKADQKGVTIIGPATVGGIKPGCFKIGNTGGMLDNILASKLYRPGSVAYVSRSGGMSNELNNIISRTTDGVYEGVAIGGDRYPGSTFMDHVLRYQDTPGVKMIVVLGEIGGTEEYKICRGIKEGRLTKPIVCWCIGTCATMFSSEVQFGHAGACANQASETAVAKNQALKEAGVFVPRSFDELGEIIQSVYEDLVANGVIVPAQEVPPPTVPMDYSWARELGLIRKPASFMTSICDERGQELIYAGMPITEVFKEEMGIGGVLGLLWFQKRLPKYSCQFIEMCLMVTADHGPAVSGAHNTIICARAGKDLVSSLTSGLLTIGDRFGGALDAAAKMFSKAFDSGIIPMEFVNKMKKEGKLIMGIGHRVKSINNPDMRVQILKDYVRQHFPATPLLDYALEVEKITTSKKPNLILNVDGLIGVAFVDMLRNCGSFTREEADEYIDIGALNGIFVLGRSMGFIGHYLDQKRLKQGLYRHPWDDISYVLPEHMSM [ACLY]”, in the data set on HeLa Kyoto [1], the “solubility in G1/S (log2)” value was -0.0323. Moreover, the values for the melting temperature with HeLa Kyoto [2] (cell cycle stage: G1/S) and in the data set with HeLa Kyoto [2] (cell cycle stage: mitosis) were 52.2 °C and 52.6 °C, respectively. Moreover, the “solubility change mitosis (log2)” value with HeLa Kyoto [3] is -0.156. Besides, the results for the thermal stability score in the data set with HeLa Kyoto [4] (setting [5]) and in the data set with HeLa Kyoto [4] (cell cycle stage: mitosis) were 2.8 and 4.04, respectively.

On to “MAGPRVEVDGSIMEGGGQILRVSTALSCLLGLPLRVQKIRAGRSTPGLRPQHLSGLEMIRDLCDGQLEGAEIGSTEITFTPEKIKGGIHTADTKTAGSVCLLMQVSMPCVLFAASPSELHLKGGTNAEMAPQIDYTVMVFKPIVEKFGFIFNCDIKTRGYYPKGGGEVIVRMSPVKQLNPINLTERGCVTKIYGRAFVAGVLPFKVAKDMAAAAVRCIRKEIRDLYVNIQPVQEPKDQAFGNGNGIIIIAETSTGCLFAGSSLGKRGVNADKVGIEAAEMLLANLRHGGTVDEYLQDQLIVFMALANGVSRIKTGPVTLHTQTAIHFAEQIAKAKFIVKKSEDEEDAAKDTYIIECQGIGMTNPNL [RTCA]”, for which the “solubility in G1/S (log2)” value in the data set with HeLa Kyoto [1] is 0.177. Moreover, the melting temperature with HeLa Kyoto [2] (cell cycle stage: G1/S) and in the data set on HeLa Kyoto [2] (cell cycle stage: mitosis) was 54.4 °C in each case. Moreover, in the data set on HeLa Kyoto [3], the “solubility change mitosis (log2)” value is -0.173. Also, the values for the thermal stability score with HeLa Kyoto [4] (setting [5]) and with HeLa Kyoto [4] (cell cycle stage: mitosis) were -1.26 and -1.94, respectively.

Consider “MAAHGGSAASSALKGLIQQFTTITGASESVGKHMLEACNNNLEMAVTMFLDGGGIAEEPSTSSASVSTVRPHTEEEVRAPIPQKQEILVEPEPLFGAPKRRRPARSIFDGFRDFQTETIRQEQELRNGGAIDKKLTTLADLFRPPIDLMHKGSFETAKECGQMQNKWLMINIQNVQDFACQCLNRDVWSNEAVKNIIREHFIFWQVYHDSEEGQRYIQFYKLGDFPYVSILDPRTGQKLVEWHQLDVSSFLDQVTGFLGEHGQLDGLSSSPPKKCARSESLIDASEDSQLEAAIRASLQETHFDSTQTKQDSRSDEESESELFSGSEEFISVCGSDEEEEVENLAKSRKSPHKDLGHRKEENRRPLTEPPVRTDPGTATNHQGLPAVDSEILEMPPEKADGVVEGIDVNGPKAQLMLRYPDGKREQITLPEQAKLLALVKHVQSKGYPNERFELLTNFPRRKLSHLDYDITLQEAGLCPQETVFVQERN [UBXN7]”, for which the “solubility in G1/S (log2)” value in the data set on HeLa Kyoto [1] is 0.148. Also, the melting temperature in the data set on HeLa Kyoto [2] (cell cycle stage: G1/S) and in the data set on HeLa Kyoto [2] (cell cycle stage: mitosis) was 52.8 °C in each case. In addition, the “solubility change mitosis (log2)” value with HeLa Kyoto [3] was -0.138. Further, the thermal stability score with HeLa Kyoto [4] (setting [5]) was -0.156; in the data set with HeLa Kyoto [4] (cell cycle stage: mitosis) it was -0.248.

Regarding CDK12, in the data set on HeLa Kyoto [1], the “solubility in G1/S (log2)” value was -0.473. Besides, the melting temperature with HeLa Kyoto [2] (cell cycle stage: G1/S) is 50.9 °C; in the data set on HeLa Kyoto [2] (cell cycle stage: mitosis) it was 52.5 °C. Also, the “solubility change mitosis (log2)” value in the data set on HeLa Kyoto [3] stood at 0.238. The thermal stability score was -0.391 in the data set with HeLa Kyoto [4] (setting [5]) and 0.677 in the data set on HeLa Kyoto [4] (cell cycle stage: mitosis).

For the origin of these results see the supplement of paper PMC5998384.
